Five substances from PMC2173498 can be followed below.

A word on the stoichiometry N: it is a count of units in the complex or per binding partner.

Some targets named below: IBB-nucleoplasmin (UniProt P52292); M9-βgal (UniProt P09651); Thyroglobulin-NLS; IBB-βgal (UniProt P52292).
What all share (test): SEC
A general note: In gel filtration, larger molecules generally elute earlier.

WT importin β, sequence (Q14974 whole entry): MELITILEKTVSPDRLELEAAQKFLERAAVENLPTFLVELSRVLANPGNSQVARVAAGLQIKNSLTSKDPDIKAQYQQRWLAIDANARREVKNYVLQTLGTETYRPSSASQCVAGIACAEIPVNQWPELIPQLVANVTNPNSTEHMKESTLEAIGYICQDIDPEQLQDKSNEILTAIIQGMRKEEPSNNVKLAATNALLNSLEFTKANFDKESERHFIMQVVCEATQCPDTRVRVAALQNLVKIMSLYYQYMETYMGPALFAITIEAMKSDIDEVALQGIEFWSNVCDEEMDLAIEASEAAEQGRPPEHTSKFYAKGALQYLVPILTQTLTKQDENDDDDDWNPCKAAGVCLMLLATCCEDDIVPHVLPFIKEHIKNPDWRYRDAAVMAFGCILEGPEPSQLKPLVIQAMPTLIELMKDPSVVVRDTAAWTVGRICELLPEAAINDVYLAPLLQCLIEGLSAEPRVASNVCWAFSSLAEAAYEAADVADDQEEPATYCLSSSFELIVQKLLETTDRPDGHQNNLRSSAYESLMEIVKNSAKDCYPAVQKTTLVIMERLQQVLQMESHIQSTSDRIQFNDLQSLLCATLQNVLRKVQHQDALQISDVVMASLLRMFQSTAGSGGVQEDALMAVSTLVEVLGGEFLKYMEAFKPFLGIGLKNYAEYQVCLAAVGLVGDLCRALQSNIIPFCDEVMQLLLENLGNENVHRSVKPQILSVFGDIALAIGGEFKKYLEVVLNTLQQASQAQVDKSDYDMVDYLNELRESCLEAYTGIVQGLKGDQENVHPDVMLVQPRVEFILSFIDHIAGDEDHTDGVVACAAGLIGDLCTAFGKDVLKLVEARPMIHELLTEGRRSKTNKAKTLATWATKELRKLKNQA
WT transportin, sequence (Q92973 whole entry): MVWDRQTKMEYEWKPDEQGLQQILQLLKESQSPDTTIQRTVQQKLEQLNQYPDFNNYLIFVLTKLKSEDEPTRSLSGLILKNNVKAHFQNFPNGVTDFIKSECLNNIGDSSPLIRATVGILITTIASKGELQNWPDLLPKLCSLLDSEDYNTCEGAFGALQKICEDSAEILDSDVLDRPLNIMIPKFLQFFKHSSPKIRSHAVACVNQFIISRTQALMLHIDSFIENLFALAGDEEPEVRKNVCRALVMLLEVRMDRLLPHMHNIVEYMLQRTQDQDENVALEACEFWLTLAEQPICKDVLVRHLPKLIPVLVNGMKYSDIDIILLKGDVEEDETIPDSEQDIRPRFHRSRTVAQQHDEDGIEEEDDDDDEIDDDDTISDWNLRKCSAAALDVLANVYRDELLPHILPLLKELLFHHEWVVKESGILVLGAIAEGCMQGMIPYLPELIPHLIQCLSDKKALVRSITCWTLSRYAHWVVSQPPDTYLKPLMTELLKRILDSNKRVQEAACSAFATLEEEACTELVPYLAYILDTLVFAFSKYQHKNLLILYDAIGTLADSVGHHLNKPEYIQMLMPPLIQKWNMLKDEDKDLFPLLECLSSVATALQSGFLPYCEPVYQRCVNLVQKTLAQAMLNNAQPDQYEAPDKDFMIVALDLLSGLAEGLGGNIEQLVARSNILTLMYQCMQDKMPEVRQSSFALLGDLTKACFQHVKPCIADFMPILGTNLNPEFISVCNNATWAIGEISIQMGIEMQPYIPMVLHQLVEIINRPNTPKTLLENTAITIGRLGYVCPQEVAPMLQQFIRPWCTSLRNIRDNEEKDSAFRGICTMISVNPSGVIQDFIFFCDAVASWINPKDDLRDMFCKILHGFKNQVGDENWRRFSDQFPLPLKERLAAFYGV

In the assay with IBB-nucleoplasmin, “IBB-nucleoplasmin (from UniProt P52292 1-65; P05221 1-149)” showed a stoichiometry N of 10. M9-βgal (from UniProt P09651-2 255-320) showed a stoichiometry N with M9-βgal of 4. In the case of Thyroglobulin-NLS, in the assay with Thyroglobulin-NLS, the stoichiometry N was 2. As for “WT importin β (from UniProt Q14974 1-876) (natural protein)”, the stoichiometry N (receptors per cargo) with IBB-nucleoplasmin came to 5; with IBB-βgal, 4. In the assay with M9-βgal, “WT transportin (from UniProt Q92973 1-898) (natural protein)” returned a stoichiometry N (receptors per cargo) of 4.
